In patent publication US8816053B2 (ZymoGenetics, Inc., priority 2004, dated 2014):

T1: zcyto20 (Homo sapiens, UniProt Q8IZJ0)
T1 sequence (Q8IZJ0 26-200): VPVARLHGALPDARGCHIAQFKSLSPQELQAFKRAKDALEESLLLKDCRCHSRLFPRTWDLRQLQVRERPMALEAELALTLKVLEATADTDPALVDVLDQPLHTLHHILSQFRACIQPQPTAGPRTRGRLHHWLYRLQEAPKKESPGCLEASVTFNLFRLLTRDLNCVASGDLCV

B1: Zcyto24: mouse IL-28 (zcyto24), SEQ ID NO:8 (protein, listed as Mus musculus)
chain: MKPETAGGHMLLLLLPLLLAAVLTRTQADPVPRATRLPVEAKDCHIAQFKSLSPKELQAFKKAKDAIEKRLLEKDLRCSSHLFPRAWDLKQLQVQERPKALQAEVALTLKVWENMTDSALATILGQPLHTLSHIHSQLQTCTQLQATAEPRSPSRRLSRWLHRLQEAQSKETPGCLEASVTSNLFRLLTRDLKCVANGDQCV
B2: IL-28A: human IL-28A cytokine polypeptide, previous designation zcyto20 (e.g. SEQ ID NO:18, CHO-derived) (protein, listed as Homo sapiens)
chain: MKLDMTGDCTPVLVLMAAVLTVTGAVPVARLHGALPDARGCHIAQFKSLSPQELQAFKRAKDALEESLLLKDCRCHSRLFPRTWDLRQLQVRERPMALEAELALTLKVLEATADTDPALVDVLDQPLHTLHHILSQFRACIQPQPTAGPRTRGRLHHWLYRLQEAPKKESPGCLEASVTFNLFRLLTRDLNCVASGDLCV
modifications: SIGNAL (1)...(25)
B3: IL-29: human IL-29 cytokine polypeptide, previous designation zcyto21 (e.g. SEQ ID NO:20, CHO-derived) (protein, listed as Homo sapiens)
chain: MAAAWTVVLVTLVLGLAVAGPVPTSKPTTTGKGCHIGRFKSLSPQELASFKKARDALEESLKLKNWSCSSPVFPGNWDLRLLQVRERPVALEAELALTLKVLEAAAGPALEDVLDQPLHTLHHILSQLQACIQPQPTAGPRPRGRLHHWLHRLQEAPKKESAGCLEASVTFNLFRLLTRDLKYVADGNLCLRTSTHPEST
modifications: SIGNAL (1)...(19)
B4: Muzcytor19-Ig: murine zcytor19-Ig homodimeric soluble receptor (protein)
chain: RPRLAPPRNVTLFSQNFTVYLTWLPGLGSPPNVTYFVTYQSYIKTGWRPVEHCAGIKALVCPLMCLKKLNLYSKFKGRVQAASAHGRSPRVESRYLEYLFDVELAPPTLVLTQMEKILRVNATYQLPPCMPSLELKYQVEFWKEGLGSKTLFPDTPYGQPVQIPLQQGASRRHCLSARTVYTLIDIKYSQFSEPSCIFLEAPGDKRA
modifications: left off: a dimerising Fc or GST
notes: murine zcytor19-Ig homodimeric soluble receptor

Columns and labels:
zcyto20 = target: T1, zcyto20; experiment: Inhibition of ligand-induced ISRE signaling by soluble receptors, 293 HEK cells overexpressing zcytor19, ligand zcyto20; format: cell-based; conditions: all three ligands together; soluble receptor 10 micrograms/ml
Excerpt: A signal transduction reporter assay can be used to show the inhibitor properties of zcytor19-Fc4 homodimeric and zcytor19-Fc/CRF2-4-Fc heterodimeric soluble receptors on zcyto20, zcyto21 and zcyto24 signaling. Human embryonal kidney (HEK) cells overexpressing the zcytor19 receptor are transfected with a reporter plasmid containing an interferon-stimulated response element (ISRE) driving transcription of a luciferase reporter gene. Luciferase activity following stimulation of transfected cells with ligands (including zcyto20 (SEQ ID NO:18), zcyto21 (SEQ ID NO:20), zcyto24 (SEQ ID NO:8)) reflects the interaction of the ligand with soluble receptor.
The results obtained are shown as the percent inhibition of ligand-induced signaling in the presence of soluble receptor relative to the signaling in the presence of PBS alone.

Mouse B cells = experiment: 3H-thymidine incorporation by mouse B cells; format: cell-based
Method: Mouse B cells were isolated from 2 Balb/C spleens (7 months old) by depleting CD43+ cells using MACS magnetic beads. Purified B cells were cultured in vitro with LPS, anti-IgM or anti-CD40 monoclonal antibodies. Mouse IL-28 or mouse IFNα was added to the cultures and ^3H-thymidine was added at 48 hrs. and ^3H-thymidine incorporation was measured after 72 hrs. culture.

[1] = system: mouse OAS, Pkr and Mx1 in AML-12 cells; experiment: ISG induction in the mouse liver cell line AML-12 (real-time PCR); format: cell-based; conditions: AML-12, 20 ng/ml, 48 hour time point
adenoviral vector, AdGFP = experiment: Adenoviral vector (AdGFP) liver pathology model in C57Bl/6 mice; conditions: 50 μg i.p., 7 doses; H&E
mouse OAS, Pkr and Mx1 = experiment: ISG gene induction in liver, spleen and blood of C57BL/6 mice injected with protein (real-time PCR); format: in vivo; conditions: i.p. or i.v., 10 μg-250 μg, 1 hr-48 hr
Method: Mice were sacrificed at various time points (1 hr-48 hr). Spleens and livers were isolated from mice, and RNA was isolated. RNA was also isolated from the blood cells. The cells were pelleted and RNA isolated from pellets using RNAEasy®-kit (Qiagen). RNA was treated with DNase (Amicon) to rid RNA of any contaminating DNA. cDNA was generated using Perkin-Elmer RT mix (Perkin-Elmer). ISG gene induction was measured by real-time PCR using primers and probes specific for mouse OAS, Pkr and Mx1. To obtain quantitative data, HPRT real-time PCR was duplexed with ISG PCR. A standard curve was calculated using known amounts of IFN-stimulated mouse PBLs. All data are shown as expression relative to internal HPRT expression.
Results shown are fold expression relative to HPRT gene expression. […] The data shown is the average expression from 5 different animals/group.
Mice were injected with 100 μg of proteins i.v. Data shown is fold expression over HPRT expression from livers of mice. Similar data was obtained from blood and spleens of mice.

OAS activity = OAS activity in serum and plasma of treated mice (OAS radioimmunoassay); format: in vivo, mouse; conditions: i.v., 10 μg-250 μg
Method: Serum and plasma were isolated from mice at varying time points, and OAS activity was measured using the OAS radioimmunoassay (RIA) kit from Eiken Chemicals (Tokyo, Japan).

Row | Molecule | inhibition of zcyto20, zcyto21 and zcyto24-induced signaling (zcyto20) | liver and inflammation scores (liver histology) versus the PBS-treated group (adenoviral vector, AdGFP) | ISG gene expression (OAS, Pkr, Mx1) in the livers, spleen and blood of mice (mouse OAS, Pkr and Mx1) | other results
1 | HuCRF2-4-Fc: human CRF2-4-Fc homodimeric soluble receptor | No significant effects |  |  | 
2 | B1 |  | lower |  | 3H-thymidine incorporation (Mouse B cells; B cells stimulated with LPS or anti-IgM, IFNα 10 ng/ml, mouse IL-28 any concentration including 1000 ng/ml, 72 hrs): did not inhibit; 3H thymidine incorporation (Mouse B cells; B cells stimulated with anti-CD40 MAb): increased; Mx1 (expression relative to HPRT) [1]: 0.08; OAS (expression relative to HPRT) [1]: 0.04; PkR (expression relative to HPRT) [1]: 0.02
3 | B2 |  |  | did not induce | 
4 | B3 |  | lower | induced | OAS activity in the serum and plasma of mice (OAS activity): induced
5 | B4 | No significant effects |  |  | 
